Experimental data: publication PMC6468249
Read-outs that look alike come from different tables or passages of the source.

T1: mtSSB (Homo sapiens, UniProt Q04837 15-148)
T1 sequence: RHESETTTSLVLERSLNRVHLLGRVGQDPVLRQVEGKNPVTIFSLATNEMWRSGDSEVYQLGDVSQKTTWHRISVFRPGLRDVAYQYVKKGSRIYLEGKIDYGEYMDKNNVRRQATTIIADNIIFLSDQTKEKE


Assays:
mtSSB [1] = molecular target: T1, mtSSB; assay: EMSA
mtSSB [2] = molecular target: T1, mtSSB; assay: EMSA; remark: listed apart in the source

Row | Binder | binding result (mtSSB [1]) | binding result (mtSSB [2])
1 | AGAACCTGTTGAACAAAAGC (ssDNA) [20 nt ssDNA probe] | binds | –
2 | AGAACCUGUUGAACAAAAGC (ssRNA) [20 nt RNA probe] | – | binds
